According to paper PMC9418327:

Molecular target: Dfd (Deformed);Exd (Extradenticle) (Drosophila melanogaster?;Drosophila melanogaster?) (UniProt P07548+P40427)
Experiment: EMSA
Conditions: class 2 site printed as 9.1 mM in same passage; assay source not fully shown; 20 mM HEPES pH 7.9, 1.4 mM MgCl2, 1 mM ZnSO4, 40 mM KCl, 0.1 mM EGTA, 5% glycerol, 10 mM DTT, 0.1% NP40, 200 ng poly(dI-dC), 3 ug BSA, 2 pmol Cy5 dsDNA in …

Dfd (Deformed);Exd (Extradenticle) (Drosophila melanogaster?;Drosophila melanogaster?), sequence (P07548 whole entry, chain 1 of 2): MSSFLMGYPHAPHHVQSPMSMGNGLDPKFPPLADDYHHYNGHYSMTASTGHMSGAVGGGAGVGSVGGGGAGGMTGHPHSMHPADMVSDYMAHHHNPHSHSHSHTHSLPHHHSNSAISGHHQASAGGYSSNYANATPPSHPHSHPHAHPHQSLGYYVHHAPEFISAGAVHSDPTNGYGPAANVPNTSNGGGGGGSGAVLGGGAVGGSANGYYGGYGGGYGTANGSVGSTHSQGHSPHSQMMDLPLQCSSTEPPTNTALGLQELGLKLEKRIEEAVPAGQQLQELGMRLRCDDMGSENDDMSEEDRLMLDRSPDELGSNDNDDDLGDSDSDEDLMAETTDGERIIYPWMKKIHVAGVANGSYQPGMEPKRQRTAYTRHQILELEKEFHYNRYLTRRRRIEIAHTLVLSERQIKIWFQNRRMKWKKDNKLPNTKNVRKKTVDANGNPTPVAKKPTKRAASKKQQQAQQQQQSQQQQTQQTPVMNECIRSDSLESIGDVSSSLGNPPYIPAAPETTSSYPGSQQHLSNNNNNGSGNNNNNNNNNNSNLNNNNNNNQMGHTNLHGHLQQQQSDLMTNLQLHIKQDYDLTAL
Dfd (Deformed);Exd (Extradenticle) (Drosophila melanogaster?;Drosophila melanogaster?), sequence (P40427 whole entry, chain 2 of 2): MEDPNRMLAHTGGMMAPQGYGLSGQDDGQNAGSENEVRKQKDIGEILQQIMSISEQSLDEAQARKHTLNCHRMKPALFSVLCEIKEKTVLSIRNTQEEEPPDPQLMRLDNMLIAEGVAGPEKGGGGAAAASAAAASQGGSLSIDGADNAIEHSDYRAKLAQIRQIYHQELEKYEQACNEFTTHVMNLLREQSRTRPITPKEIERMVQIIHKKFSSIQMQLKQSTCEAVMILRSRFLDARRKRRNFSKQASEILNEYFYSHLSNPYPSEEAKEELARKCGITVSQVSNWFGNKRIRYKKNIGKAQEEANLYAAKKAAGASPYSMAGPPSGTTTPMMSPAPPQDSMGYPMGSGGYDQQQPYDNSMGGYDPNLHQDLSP

Substance: modC enhancer site I
- Kd (mM (so in the source); probably nM)): 5.5
